Measurements reported in patent US20120040894A1.
Numbered stars: 1 amine (or outer) side, 2 acyl side, 3 side chain; on linkers, the order of the positions; unused ones are H or OH. Square brackets hold non-standard residues; d marks the D form. Ends that are not written are not given here. Dap(AcBr) = N-(bromoacetyl)-L-2,3-diaminopropionic acid, O=C(CBr)NC[C@H](N[*:1])C(=O)[*:2]; Oic = O=C(O)[C@@H]1C[C@@H]2CCCC[C@@H]2N1; Dip = N[C@H](C(=O)O)C(c1ccccc1)c1ccccc1; β3hF = N[C@H](CC(=O)O)Cc1ccccc1; Chg = N[C@H](C(=O)O)C1CCCCC1; Phg = N[C@H](C(=O)O)c1ccccc1; Tle = CC(C)(C)[C@H](N)C(=O)O; β3hP = O=C(O)C[C@@H]1CCCN1; Dpa = not defined here

T1: ferroportin tagged at the C-terminus with green fluorescent protein (ECR293/Fpn-GFP cells)
T1 sequence (Q9NP59 whole entry, species assumed, looked up): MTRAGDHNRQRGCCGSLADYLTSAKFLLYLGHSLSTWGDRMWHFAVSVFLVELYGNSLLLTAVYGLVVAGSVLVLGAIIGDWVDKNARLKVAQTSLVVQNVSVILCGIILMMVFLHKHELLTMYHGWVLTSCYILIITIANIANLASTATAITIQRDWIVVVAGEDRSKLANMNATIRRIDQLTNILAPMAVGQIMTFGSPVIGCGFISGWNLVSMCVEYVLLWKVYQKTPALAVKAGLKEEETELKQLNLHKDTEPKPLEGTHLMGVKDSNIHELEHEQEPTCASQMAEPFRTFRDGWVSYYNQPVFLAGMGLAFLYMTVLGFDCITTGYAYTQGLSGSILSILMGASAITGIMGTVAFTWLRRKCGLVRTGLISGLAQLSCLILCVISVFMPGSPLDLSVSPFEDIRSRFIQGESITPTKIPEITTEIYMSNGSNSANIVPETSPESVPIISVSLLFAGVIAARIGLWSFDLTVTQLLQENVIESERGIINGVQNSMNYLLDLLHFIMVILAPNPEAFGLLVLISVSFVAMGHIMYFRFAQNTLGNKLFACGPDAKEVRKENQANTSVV


Each binder was assayed against T1, ferroportin tagged at the C-terminus with green fluorescent protein (ECR293/Fpn-GFP cells) (assay: cell-based or functional assay).

Binder	EC50 (nM); loss of fluorescence of Fpn-GFP cells, flow cytometry [nM]
D[Dpa]PICIF-NH2 (reading uncertain) [Pr40]	70
DTHFPICI[β3hF]PPR-NH2 [Pr20]	200
DTHFPICI[β3hF]P[β3hP]R-NH2 [Pr22]	600
D[Dpa]PICI[Dpa]-NH2 (reading uncertain) [Pr41]	300

Other lines, results leading:

EC50 (nM); loss of fluorescence of Fpn-GFP cells, flow cytometry [nM]	Binder
> 3000	D[Tle]H[Phg][Oic][Chg]C[Chg]F-NH2 (N-terminus assumed; SMILES CC(C)(C)[C@H](NC(=O)[C@@H](N)CC(=O)O)C(=O)N[C@@H](Cc1c[nH]cn1)C(=O)N[C@H](C(=O)N1[C@H](C(=O)N[C@H](C(=O)N[C@@H](CS)C(=O)N[C@H](C(=O)N[C@@H](Cc2ccccc2)C(N)=O)C2CCCCC2)C2CCCCC2)C[C@@H]2CCCC[C@@H]21)c1ccccc1) [Pr10]
500	DTHFPICI[β3hF]P[β3hP]K-NH2 [Pr21]
> 10000	DTHFPI[Dap(AcBr)]IF-NH2 (N-terminus assumed; SMILES CC[C@H](C)[C@H](NC(=O)[C@H](CNC(=O)CBr)NC(=O)[C@@H](NC(=O)[C@@H]1CCCN1C(=O)[C@H](Cc1ccccc1)NC(=O)[C@H](Cc1c[nH]cn1)NC(=O)[C@@H](NC(=O)[C@@H](N)CC(=O)O)[C@@H](C)O)[C@@H](C)CC)C(=O)N[C@@H](Cc1ccccc1)C(N)=O) [Dap(AcBr)]
80	DTH[Dip]PCCC[Dip]-NH2 (also: any disulfide between the Cys residues not recoverable) [Pr46]
> 3000	D[Tle]HP[Oic][Chg]C[Chg]F-NH2 (also: retroinverted) [Pr11]
700	DTHFPICI[β3hF]PPK-NH2 [Pr19]
